{"source": "paper PMC6337131", "about": "“Kinetics and Predicted Structure of a Novel Xylose Reductase from Chaetomium thermophilum” (International Journal of Molecular Sciences, 2019)", "proteins": {"B1": {"name": "CtXR; xylose reductase from Chaetomium thermophilum (Thermochaetoides thermophila DSM 1495) (protein)", "chain": "MAPQIPNIKLSSGYDMPQVGFGLWKVDRSICADVVYNAIKIGYRLFDGACDYGNEVEAGQGIARAIKEGIVKREELFIVSKLWNTFHDGDKVEPIVRKQLADWGIDYFDLYLVHFPVALEYVDPSVRYPPGWFYDGEKEIRPSKATIQETWTAMESLVEKGLARSIGVSNFQAQLLYDLLRYAKIRPATLQIEHHPFLVQQELLNLAKAEGIAVTAYSSFGPQSFLEFNMKHAVQLTPLFEDETIKKIAAKYNRPASQVLLRWATQRGLAIIPKSTRPEIMKSNLESIEFDLSEEDIATISAFDRGLRFNQPTNYFPTEHLWIFG", "notes": "full-length ORF, codon optimized, pET28a, C-terminal His6 tag kept, E. coli BL21(DE3), IMAC and SEC; theoretical mass 39,244 Da; oligomer not determined (XRs commonly dimers)"}}, "key": {"purified protein [1]": {"substrate": "NC(=O)C1=CN([C@@H]2O[C@H](COP(=O)(O)OP(=O)(O)OC[C@H]3O[C@@H](n4cnc5c(N)ncnc54)[C@H](O)[C@@H]3O)[C@@H](O)[C@H]2O)C=CC1", "assay": "purified protein", "type": "biochemical, Thermochaetoides thermophila", "conditions": "0.5 M D-xylose, 50 mM bis-tris pH 6.5, 30 °C, varied: cofactor"}, "purified protein [2]": {"substrate": "NC(=O)C1=CN([C@@H]2O[C@H](COP(=O)(O)OP(=O)(O)OC[C@H]3O[C@@H](n4cnc5c(N)ncnc54)[C@H](OP(=O)(O)O)[C@@H]3O)[C@@H](O)[C@H]2O)C=CC1", "assay": "purified protein", "type": "biochemical, Thermochaetoides thermophila", "conditions": "0.5 M D-xylose, 50 mM bis-tris pH 6.5, 30 °C, varied: cofactor"}}}
{"protein": "B1", "values": [{"measurement": "Km", "setting": "purified protein [1]", "result": "119 ± 6", "unit": "µM"}, {"measurement": "kcat", "setting": "purified protein [1]", "result": "3.2 ± 0.1", "unit": "s⁻¹"}, {"measurement": "kcat/Km", "setting": "purified protein [1]", "result": "26700 ± 1670", "unit": "M⁻¹ s⁻¹"}, {"measurement": "Km", "setting": "purified protein [2]", "result": "135 ± 44", "unit": "µM"}, {"measurement": "kcat", "setting": "purified protein [2]", "result": "11.4 ± 1.1", "unit": "s⁻¹"}, {"measurement": "kcat/Km", "setting": "purified protein [2]", "result": "85000 ± 28300", "unit": "M⁻¹ s⁻¹"}]}
